Experimental findings from patent US20200325224A1 (Hoffmann-La Roche, published 2020) are described below.

Assay [1] deals with T1, human CD3e-1-26-Fc(knob)-Avi/Fc(hole) (human, UniProt P0DOX5 223-449 = IgG part).
T1 construct: First 26 amino acids of mature CD3e fused to Fc(knob), co-expressed with Fc(hole); biotinylated for the ELISA; also called huCD3e-1-26 huFc
The assay can be described thus: ELISA, biotinylated target on streptavidin plate. How it is done: (§1) Binding of anti-CD3 antibodies to human and cynomolgus CD3 proteins and peptides was determined by ELISA. Biotinylated target proteins and peptides were immobilized on a 384-well streptavidin-coated microplate (MaxiSorb; MicroCoat, DE, Cat. No. 11974998/MC1099) in 25 μl/well, in DPBS (PAN Biotech GmbH, DE, Cat. No. P0436500) by incubation over night at 4° C. […] Peptides used were produced with biotin attached via linkers either to the N- or the C-terminus of the peptide. For target binding ELISA N- and C-terminal biotinylated peptides were mixed in a 1:1 ratio for immobilization on microplates (Table 8) and used separately (Table 8). […] Antibodies were detected with peroxidase-linked, species-specific anti-rabbit IgG, (F(ab′)₂ fragment, from donkey, GE, Cat. No. NA 9340) diluted 1:5000 in 1×PBS (w/0.5% BSA, w/0.05% Tween 20) for 1 h at room temperature. Detection antibodies were removed by four washing steps with washing buffer and signal was developed by addition of TMB substrate (TMB solution, Roche). Absorbance was read out after fixed time intervals at […].
For orientation: An ELISA detects its analyte on a solid surface through an enzyme-linked reagent.

The target of assay [2] is T2, cynomolgus CD3e 5-26-Fc(knob)-Avi/Fc(hole) (cynomolgus, UniProt P0DOX5 223-449 = IgG part).
T2 construct: Residues 5-26 of mature CD3e fused to Fc(knob), co-expressed with Fc(hole); biotinylated for the ELISA; also called cyCD3e 5-26 huFc
The assay can be described thus: ELISA, biotinylated target on streptavidin plate. As to the method: as §1

For assay [3], the target named is T3, human CD3e 5-26-Fc(knob)-Avi/Fc(hole) (human, UniProt P0DOX5 223-449 = IgG part).
T3 construct: Residues 5-26 of mature CD3e fused to Fc(knob), co-expressed with Fc(hole); biotinylated for the ELISA; also called huCD3e 5-26- huFc
The assay can be described thus: ELISA, biotinylated target on streptavidin plate. How it is done:
as §1

Assay [4] addresses T4, human CD3e amino acids 1-22 peptide (1:1 mixture of N- and C-terminally biotinylated variants) (human, biotin attached via linker to the N- or the C-terminus (1:1 mixture)).
T4 construct: Linker not described; also called huCD3e- 1-22 peptide
The assay can be described thus: ELISA, biotinylated target on streptavidin plate. How it is done:
as §1

In assay [5] the target is T5, cynomolgus CD3e amino acids 1-22 peptide (1:1 mixture of N- and C-terminally biotinylated variants) (cynomolgus, biotin attached via linker to the N- or the C-terminus (1:1 mixture)).
T5 construct: Linker not described; also called cyCD3e- 1-22 peptide; cynomolgus CD3 peptide-1-22
T5 peptide: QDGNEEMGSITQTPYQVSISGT
The assay can be described thus: ELISA, biotinylated target on streptavidin plate. How it is done: as §1

Assay [6] deals with T6, cynomolgus CD3e stalk-Fc(knob)-Avi/CD3d-stalk-Fc(hole) (cynomolgus).
T6 construct: Heterodimer; biotinylated for the ELISA; used in solution in SPR; also called cyCD3ed stalk huFc; cynomolgusCD3e(stalk)Fc-Knob-CD3d(stalk)FcHole
The experiment in a line: SPR (BIACORE T100), antibody captured by anti-rabbit IgG Fc, antigen in solution, 25 C, 1:1 Langmuir. As to the method:
Around 2000 resonance units (RU) of the capturing system (10 μg/ml goat anti rabbit IgG Fc Fragment specific; Order Code: 111-005-046; Jackson Immuno Research) were coupled on a CM4 chip (GE Healthcare, BR-1005-34) at pH 5.0 by using an amine coupling kit supplied by the GE Healthcare. Running buffer for Immobilization was HBS-N pH 7.4 (10 mM HEPES, 150 mM NaCl, pH 7.4, GE Healthcare, BR-1006-70). For the followed kinetic assay running and dilution buffer was HBS-P pH 7.4 (10 mM HEPES, 150 mM NaCl, 0.05% Surfactant P20, pH 7.4, GE Healthcare, BR-1006-71). The flow cell was set to 25° C.—and the sample block set to 12° C.—and primed with running buffer twice. […] Association was measured by injection of human CD3e(stalk)Fc-Knob-CD3d(stalk)FcHole or cynomolgus CD3e(stalk)Fc-Knob-CD3d(stalk)FcHole in various concentrations in solution for 180 sec at a flow of 30 μl/min starting with 1350 nM, followed by one 1:1.5 dilution and further in 1:3 dilutions. The dissociation phase was monitored for up to 300 sec and triggered by switching from the sample solution to running buffer. The surface was regenerated by washing with two consecutive injections of a Glycine pH 1.7 solution for 60 sec at a flow rate of 10 μl/min. Bulk refractive index differences were corrected by subtracting the response obtained from a goat anti rabbit IgG Fc surface. Blank injections are also subtracted (=double referencing). For calculation of KD and other kinetic parameters the Langmuir 1:1 model was used.

T6 sequence (chain, as listed by the source limits assumed): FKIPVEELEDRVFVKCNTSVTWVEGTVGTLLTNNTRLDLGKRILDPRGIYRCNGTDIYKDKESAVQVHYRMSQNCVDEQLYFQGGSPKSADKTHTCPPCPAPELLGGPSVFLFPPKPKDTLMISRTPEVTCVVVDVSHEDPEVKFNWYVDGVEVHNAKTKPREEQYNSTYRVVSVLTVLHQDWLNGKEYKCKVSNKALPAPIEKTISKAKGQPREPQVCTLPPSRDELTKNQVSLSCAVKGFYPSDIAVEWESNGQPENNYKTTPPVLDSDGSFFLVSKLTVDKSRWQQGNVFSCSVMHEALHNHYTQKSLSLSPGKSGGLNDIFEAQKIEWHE
T4 sequence (peptide, as listed by the source mutant): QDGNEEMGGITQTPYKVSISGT

B1: antibody clone 645 (antibody, V domains shown)
VH: QSLEESGGDLVKPGASLTLTCLASGFSFSGTYWICWVRQAPGKGLEWIGCISTDSGSTYYASWAKGRFTISKTSSTTVTLQMTSLTAADTATNFCARSAYASEGYALWGPGTLVTVSS
VL: AIVMTQTPSSKSVPVGDTVTINCQASESVYNNNYLSWYQQKPGQPPKLLIYYASTLASGVSSRFKGSGSGTQFTLTISDVVCDDAATYYCTGWKSITTDGMGAFGGGTEVVVKG
notes: Rabbit monoclonal; Recombinantly expressed with rabbit gamma and kappa constant regions in HEK293 (captured by anti-rabbit IgG Fc in SPR); also called Mab.645
In general, Kd refers to the concentration at which binding is half-saturated. Lower therefore signals tighter binding. In general, koff refers to the first-order rate constant of dissociation. A higher koff goes with a short-lived complex. The term kon denotes the rate constant with which the complex forms. Read a low kon as slow association. Consider B1, for which the binding result in assay [1], in assay [2], in assay [3], in assay [4] and in assay [5] was “no binding” in each case. The molecule also had a Kd in assay [6] of 620 nM. Moreover, the koff in assay [6] worked out at 0.013 s⁻¹. For the same molecule, in assay [6], the kon is 21000 M⁻¹ s⁻¹.
